Article PMC6956557, “Preclinical development of a novel CD47 nanobody with less toxicity and enhanced anti-cancer therapeutic potential” (Journal of Nanobiotechnology, 2020)

Columns and labels:
hCD47 (ECD)-Fc = target: T1, hCD47 (ECD)-Fc (Homo sapiens, UniProt Q08722); assay: ELISA; 5 μg/mL CD47 (ECD)-Fc proteins coated overnight at 4 °C, 1% BSA block, 10 μg/mL Nb for 1 h at room temperature; mouse anti-HA and anti-mouse IgG-alkaline phosphatase, A405; settings: both partners purified
T1 construct: human CD47 ectodomain (ECD), residues 20-136; Cloned into a pFUSE vector; also called human CD47 (ECD)-Fc; recombinant hCD47 antigen
T1 sequence (Q08722 20-136): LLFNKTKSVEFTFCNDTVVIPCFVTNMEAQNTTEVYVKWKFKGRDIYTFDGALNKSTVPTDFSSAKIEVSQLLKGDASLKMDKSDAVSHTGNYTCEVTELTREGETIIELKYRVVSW

mouse CD47 (ECD)-Fc = target: T2, mouse CD47 (ECD)-Fc (Mus musculus, UniProt Q61735); assay: as above; settings: both partners purified
T2 construct: mouse CD47 ectodomain (ECD); source: HEK-293F, purified

rat CD47 (ECD)-Fc = target: T3, rat CD47 (ECD)-Fc (Rattus norvegicus, UniProt P97829); assay: as above; settings: both partners purified
T3 construct: rat CD47 ectodomain (ECD); source: HEK-293F, purified

[1] = target: T4, human CD47 on the surface of cells (human (endogenous in Raji), UniProt Q08722); assay: flow cytometry on cells; competition: Raji cells co-incubated with HuNb1-biotin or Rituximab-biotin and unlabelled antibody; streptavidin-PE; settings: one partner purified
T4 construct: human CD47 (integrin-associated protein) on the cell surface; also called hCD47; CD47 expressed on Raji cells; source: endogenous, on Raji cells; endogenous, on human RBCs of healthy donors
T4 sequence (Q08722 19-323): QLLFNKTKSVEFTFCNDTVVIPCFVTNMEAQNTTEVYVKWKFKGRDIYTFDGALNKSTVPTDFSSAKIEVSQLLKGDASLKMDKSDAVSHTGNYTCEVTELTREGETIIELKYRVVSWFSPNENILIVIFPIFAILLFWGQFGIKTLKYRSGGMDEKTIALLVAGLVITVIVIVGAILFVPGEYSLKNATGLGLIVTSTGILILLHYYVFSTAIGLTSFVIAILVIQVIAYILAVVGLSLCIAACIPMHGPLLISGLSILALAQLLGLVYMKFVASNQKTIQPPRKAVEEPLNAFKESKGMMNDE

binding result (hCD47 (ECD)-Fc) | binding result (mouse CD47 (ECD)-Fc) | binding result (rat CD47 (ECD)-Fc) | binding result [1] | Binder
binds | no binding (tested: 10 μg/mL) | no binding (tested: 10 μg/mL) | – | HuNb1 (VHH, as the VHH of m1; The nanobody alone as used in the ELISA, detected by an anti-HA antibody; also called CD47 Nb; source: E. coli WK6 (pMECS), purified (Ni-sepharose)) VHH: QVQLQESGGGLVQPGGSLRLSCAASGYAYTSDCMGWFRQTPGKGLEGVALIYTPGNSTNYADSVKGRFTISQDNSKSTVYLQMNSLRAEDTAMYYCAARRGACSLRLPFFYWGQGTLVTVSS
– | – | – | binds | HuNb1-biotin (VHH, as the VHH of m1) VHH: QVQLQESGGGLVQPGGSLRLSCAASGYAYTSDCMGWFRQTPGKGLEGVALIYTPGNSTNYADSVKGRFTISQDNSKSTVYLQMNSLRAEDTAMYYCAARRGACSLRLPFFYWGQGTLVTVSS
